B1: GFOD1 (parent)
chain: SDDFCTFQMVLEGGVCCTVTLNFN

Variants of: B1
Test: protein stability index of a GFP-peptide fusion (GPS, HEK-293T) (PSI 1-6); higher = more stable
Settings: c terminus: a fixed tail appended
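Note: lentivirally expressed fusions sorted by FACS into six bins by GFP to DsRed ratio, PSI derived from sequencing read proportions per bin multiplied by bin number.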

Protein stability index: each site, then its substitutions
D3: V 3.3; Y 4
F4: C 3.57; D 2.46; E 1.81; H 1.87; I 3.55; K 1.77; L 3.55; M 3.37; N 3.13; Q 2.56; R 3.19; S 2.38; T 3.91; V 2.91; Y 2.63
C5: A 1.58; D 2.59; F 2.08; H 2.97; I 3.26; K 2.39; L 3.9; M 3.18; Q 3.77; R 3.13; V 3.65
T6: A 2.79; D 3.22; E 2.56; F 2.48; G 2.51; H 2.12; I 2.48; K 2.04; M 3.02; N 2.54; P 1.65; W 2.35; Y 1.92
F7: D 1.59; E 2.03; G 2.88; H 2.26; K 1.93; N 1.63; P 1.46; T 2.64; V 1.98; W 2.67; Y 2.77
Q8: A 3.01; C 2.98; D 2.45; E 2.71; G 1.72; H 3.2; I 3.21; K 3.33; L 3.02; M 3.81; N 2.13; R 4.3; V 3.25; W 2.86; Y 1.44
M9: A 2.43; C 2.77; D 2.18; E 1.42; F 2.5; G 3.57; H 2.74; I 3.34; K 1.8; L 2.7; P 1.27; Q 1.55; T 3.09; V 2.59; W 2.28; Y 2.76
V10: A 2.91; C 3.77; D 3.42; F 4.27; H 2.2; I 1; K 2.56; L 2.58; M 1.84; N 1.83; P 2.35; Q 1.29; S 2.04; T 2.36; W 3.71; Y 1.13
L11: A 1.26; D 3.52; F 3.38; H 3.05; I 2.51; K 2.9; P 3.4; R 3.43; V 3.22; Y 3.1
E12: A 3.59; C 2.46; F 2.27; G 3.33; H 2.37; I 2.56; L 4.46; M 3.38; N 3.79; Q 2.74; S 3.99; T 1.99; V 3.03; W 2.6
G13: A 3.65; D 3.2; E 2.48; F 2.3; I 2.35; K 3.14; L 4.34; M 2.94; N 2.32; P 2.92; Q 3.22; R 3.71; V 2.5
G14: A 2.87; C 2.19; D 3.01; E 2.08; K 2.74; L 3.96; M 2.54; N 1.78; P 2.84; Q 1.74; R 1.6; W 2.93; Y 1.83
V15: C 2.55; D 2.58; E 2.33; F 3.41; H 4.25; I 1.72; K 2.27; L 4.13; M 3.15; P 2.97; Q 2.94; R 3.84; Y 4.1
C16: A 4.12; D 2.56; E 2.24; F 1.78; G 3.63

Reference: the supplement of paper PMC10567573
